Earlier results, collected in publication PMC12520553.
Where two headings read alike, the source gives them in different places. Each block holds one substance with its values, some of them ahead of it.

Tests used:
RAGE (Homo sapiens) [1] = biological target: RAGE (Homo sapiens) (UniProt Q15109)
sRAGE ECD (Homo sapiens) = sRAGE ECD (Homo sapiens) (UniProt Q15109); experiment: MST
S100B (Homo sapiens) [2] = biological target: S100B (Homo sapiens) (UniProt P04271); experiment: SPR
[3] = biological target: Aβ1-40 Aβ1-40 (Homo sapiens) (UniProt P05067)
glucose-BSA (Bos taurus) = glucose-BSA (Bos taurus) (UniProt P02769); experiment: SPR
S100A9 (Homo sapiens) = S100A9 (Homo sapiens) (UniProt P06702); experiment: SPR
[4] = biological target: fructose-BSA (Bos taurus) (UniProt P02769); experiment: SPR
S100A8 (Homo sapiens) = S100A8 (Homo sapiens) (UniProt P05109); experiment: SPR
Aβ42 Aβ42 (Homo sapiens) [5] = biological target: Aβ42 Aβ42 (Homo sapiens) (UniProt P05067)
Aβ40 Aβ40 (Homo sapiens) [6] = biological target: Aβ40 Aβ40 (Homo sapiens) (UniProt P05067)
S100A13 (Homo sapiens) = S100A13 (Homo sapiens) (UniProt Q99584); experiment: ITC
Aβ40 Aβ40 (Homo sapiens) [7] = biological target: Aβ40 Aβ40 (Homo sapiens) (UniProt P05067); experiment: given as Ka
S100A6m (Homo sapiens) = S100A6m (Homo sapiens) (UniProt P06703); experiment: ITC
S100P (Homo sapiens) = S100P (Homo sapiens) (UniProt P25815); experiment: ITC
C1q (Homo sapiens) = C1q (Homo sapiens) (UniProt P02745); experiment: SPR
HMGB1 (Homo sapiens) = HMGB1 (Homo sapiens) (UniProt P09429); experiment: SPR
S100A11 (Homo sapiens) = S100A11 (Homo sapiens) (UniProt P31949); experiment: NMR
Aβ40 Aβ40 (Homo sapiens) [8] = biological target: Aβ40 Aβ40 (Homo sapiens) (UniProt P05067); remark: listed apart in the source
Aβ Aβ (Homo sapiens) = Aβ Aβ (Homo sapiens) (UniProt P05067)
S100A5 (Homo sapiens) = S100A5 (Homo sapiens) (UniProt P33763)
Aβ42 Aβ42 (Homo sapiens) [9] = biological target: Aβ42 Aβ42 (Homo sapiens) (UniProt P05067); experiment: MST
S100B (Homo sapiens) [10] = biological target: S100B (Homo sapiens) (UniProt P04271); experiment: ITC
[11] = biological target: RAGE V domain (Homo sapiens) (UniProt Q15109)
RAGE (Homo sapiens) [12] = biological target: RAGE (Homo sapiens) (UniProt Q15109); experiment: SPR
[13] = biological target: RAGE 23-132 (Homo sapiens) (UniProt Q15109)
[14] = biological target: S100B (dimer) (Homo sapiens) (UniProt P04271); experiment: SPR
[15] = biological target: pS8-Aβ42 Aβ42 (Homo sapiens) (UniProt P05067); experiment: MST
[16] = biological target: Aβ17-42 Aβ17-42 (Homo sapiens) (UniProt P05067); experiment: MST
[17] = biological target: iso-Aβ42 Aβ42 (Homo sapiens) (UniProt P05067); experiment: MST

Sequence of S100B (Homo sapiens) (P04271 2-92): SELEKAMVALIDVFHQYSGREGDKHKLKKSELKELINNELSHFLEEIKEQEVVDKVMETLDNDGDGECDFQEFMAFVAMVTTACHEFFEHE
Sequence of S100A8 (Homo sapiens) (P05109 whole entry): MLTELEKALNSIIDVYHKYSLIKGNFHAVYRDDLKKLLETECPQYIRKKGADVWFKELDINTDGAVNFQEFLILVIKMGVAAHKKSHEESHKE
Sequence of S100A8 (P05109 whole entry): as above
Sequence of S100A9 (P06702 whole entry): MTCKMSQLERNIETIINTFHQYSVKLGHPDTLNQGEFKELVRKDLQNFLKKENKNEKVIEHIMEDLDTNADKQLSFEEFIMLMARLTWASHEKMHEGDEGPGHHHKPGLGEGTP
Sequence of S100A9 (Homo sapiens) (P06702 whole entry): as above
Sequence of S100P (Homo sapiens) (P25815 whole entry): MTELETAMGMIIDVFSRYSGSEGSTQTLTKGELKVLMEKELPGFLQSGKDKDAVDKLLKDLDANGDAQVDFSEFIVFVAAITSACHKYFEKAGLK
Sequence of C1q (Homo sapiens) (P02745 23-245, chain 1 of 3): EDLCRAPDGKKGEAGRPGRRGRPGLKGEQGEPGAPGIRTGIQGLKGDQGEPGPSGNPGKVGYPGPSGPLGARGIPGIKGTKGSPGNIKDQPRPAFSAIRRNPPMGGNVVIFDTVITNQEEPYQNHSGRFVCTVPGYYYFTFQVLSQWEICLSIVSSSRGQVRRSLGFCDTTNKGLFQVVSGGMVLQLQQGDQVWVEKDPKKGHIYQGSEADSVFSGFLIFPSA
Sequence of C1q (Homo sapiens) (P02746 28-253, chain 2 of 3, further chain): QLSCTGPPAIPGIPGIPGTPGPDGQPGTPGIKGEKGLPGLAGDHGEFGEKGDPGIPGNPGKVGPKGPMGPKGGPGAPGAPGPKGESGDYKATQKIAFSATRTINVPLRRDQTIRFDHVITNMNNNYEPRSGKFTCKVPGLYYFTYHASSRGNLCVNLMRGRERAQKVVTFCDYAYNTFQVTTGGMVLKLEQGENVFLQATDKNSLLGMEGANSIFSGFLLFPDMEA
Sequence of C1q (Homo sapiens) (P02747 29-245, chain 3 of 3, further chain): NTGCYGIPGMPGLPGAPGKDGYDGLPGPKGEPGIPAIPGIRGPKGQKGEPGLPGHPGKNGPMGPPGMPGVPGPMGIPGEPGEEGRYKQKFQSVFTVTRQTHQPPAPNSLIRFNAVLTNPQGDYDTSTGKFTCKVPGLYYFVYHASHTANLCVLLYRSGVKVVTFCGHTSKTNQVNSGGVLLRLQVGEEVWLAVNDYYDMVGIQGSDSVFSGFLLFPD
Sequence of S100A11 (Homo sapiens) (P31949 2-105): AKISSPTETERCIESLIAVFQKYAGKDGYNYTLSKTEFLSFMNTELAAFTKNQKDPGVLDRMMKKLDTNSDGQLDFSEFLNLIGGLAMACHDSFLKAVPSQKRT
Sequence of S100B (dimer) (Homo sapiens) (P04271 2-92): as the sequence (P04271 2-92) above
Sequence of S100B (P04271 2-92): as above
Sequence of glucose-BSA (AGE) (P02769 25-607): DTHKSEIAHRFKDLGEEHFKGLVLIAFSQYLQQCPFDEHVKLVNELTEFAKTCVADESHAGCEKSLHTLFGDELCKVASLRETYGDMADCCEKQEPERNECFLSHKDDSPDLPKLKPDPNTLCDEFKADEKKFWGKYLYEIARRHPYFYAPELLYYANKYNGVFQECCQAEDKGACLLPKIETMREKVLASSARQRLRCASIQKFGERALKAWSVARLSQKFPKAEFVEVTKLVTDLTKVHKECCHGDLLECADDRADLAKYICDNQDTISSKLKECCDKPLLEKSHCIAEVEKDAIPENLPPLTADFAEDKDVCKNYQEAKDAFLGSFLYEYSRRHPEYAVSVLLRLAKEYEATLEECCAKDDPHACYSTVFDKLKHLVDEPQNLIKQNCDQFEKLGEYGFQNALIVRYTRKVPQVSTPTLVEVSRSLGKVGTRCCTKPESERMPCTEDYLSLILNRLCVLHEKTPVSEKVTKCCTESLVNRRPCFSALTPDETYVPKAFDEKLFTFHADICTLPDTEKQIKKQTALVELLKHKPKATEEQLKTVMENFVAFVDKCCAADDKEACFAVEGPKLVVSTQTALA
Sequence of fructose-BSA (Bos taurus) (P02769 25-607): as above
Sequence of fructose-BSA (AGE) (P02769 25-607): as above
Sequence of glucose-BSA (Bos taurus) (P02769 25-607): as above
Sequence of HMGB1 (Homo sapiens) (P09429 whole entry): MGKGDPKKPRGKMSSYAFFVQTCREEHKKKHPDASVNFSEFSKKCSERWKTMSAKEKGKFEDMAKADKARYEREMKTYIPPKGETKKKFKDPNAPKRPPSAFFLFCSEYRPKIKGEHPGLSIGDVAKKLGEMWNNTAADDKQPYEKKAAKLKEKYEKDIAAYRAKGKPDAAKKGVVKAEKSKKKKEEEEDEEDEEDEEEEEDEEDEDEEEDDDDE
Sequence of S100A5 (P33763 whole entry): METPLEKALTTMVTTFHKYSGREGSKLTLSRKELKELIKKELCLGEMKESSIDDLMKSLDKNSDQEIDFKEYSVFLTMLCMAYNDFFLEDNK
Sequence of S100A5 (Homo sapiens) (P33763 whole entry): as above
Sequence of S100A13 (Homo sapiens) (Q99584 whole entry): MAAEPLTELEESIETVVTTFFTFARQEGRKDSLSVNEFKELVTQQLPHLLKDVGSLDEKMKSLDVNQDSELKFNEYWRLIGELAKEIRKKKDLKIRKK

Substance: Amyloid-beta 1-40 Abeta 1-40 (from UniProt P05067)
Kd (RAGE (Homo sapiens) [1]): 57 nM

Substance: RAGE 23-132 (from UniProt Q15109)
Kd (S100B (Homo sapiens) [2]): 500 nM

Substance: S100A5 (from UniProt P33763)
Kd [11]: 5900 nM

Substance: S100A9 (from UniProt P06702)
Kd (RAGE (Homo sapiens) [12]): 3.21 nM

Substance: S100B (from UniProt P04271)
Kd [13]: 500 nM

Substance: fructose-BSA (AGE) (from UniProt P02769)
Kd (RAGE (Homo sapiens) [12]): 19500 nM

Substance: glucose-BSA (AGE) (from UniProt P02769)
Kd (RAGE (Homo sapiens) [12]): 13900 nM

Substance: sRAGE ECD (from UniProt Q15109)
Kd [14]: 8300 nM
Kd [15]: 7000 nM
Kd [16]: 10000 nM
Kd [17]: 23000 nM

The next lines start with the values.

Kd (sRAGE ECD (Homo sapiens)): 10000 nM
Substance: Amyloid-beta 17-42 Abeta 17-42 (from UniProt P05067)

Kd [3]: 57 nM
Kd (glucose-BSA (Bos taurus)): 13900 nM
Kd (S100A9 (Homo sapiens)): 3.21 nM
Kd [4]: 19500 nM
Kd (S100A8 (Homo sapiens)): 70 nM
Kd (Aβ42 Aβ42 (Homo sapiens) [5]): 92 nM
Kd (Aβ40 Aβ40 (Homo sapiens) [6]): 75 nM
Substance: RAGE (from UniProt Q15109)

Kd (S100A13 (Homo sapiens)): 1300 nM
Substance: RAGE C2 (from UniProt Q15109)

Kd (Aβ40 Aβ40 (Homo sapiens) [7]): 625 nM
Kd (S100A6m (Homo sapiens)): 3000 nM
Kd (S100P (Homo sapiens)): 6200 nM
Kd (C1q (Homo sapiens)): 5600 nM
Kd (HMGB1 (Homo sapiens)): 97.7 nM
Kd (S100A11 (Homo sapiens)): 2650 nM
Kd (Aβ40 Aβ40 (Homo sapiens) [8]): 600 nM
Kd (Aβ Aβ (Homo sapiens)): 52.2 nM
Kd (S100A5 (Homo sapiens)): 5900 nM
Kd (Aβ42 Aβ42 (Homo sapiens) [9]): 1000 nM
Substance: RAGE V domain (from UniProt Q15109)

Kd (S100B (Homo sapiens) [10]): 3190 nM
Substance: RAGE VC1 (from UniProt Q15109)

Kd (RAGE (Homo sapiens) [12]): 70 nM
Substance: S100A8 (from UniProt P05109)
